Where a chain is given by its changes, count along the chain named.
T1: B7H3 (human, UniProt Q5ZPR3 29-466, limits assumed)
T1 construct: Tumor associated antigen; also called huB7H3
T1 sequence (looked up): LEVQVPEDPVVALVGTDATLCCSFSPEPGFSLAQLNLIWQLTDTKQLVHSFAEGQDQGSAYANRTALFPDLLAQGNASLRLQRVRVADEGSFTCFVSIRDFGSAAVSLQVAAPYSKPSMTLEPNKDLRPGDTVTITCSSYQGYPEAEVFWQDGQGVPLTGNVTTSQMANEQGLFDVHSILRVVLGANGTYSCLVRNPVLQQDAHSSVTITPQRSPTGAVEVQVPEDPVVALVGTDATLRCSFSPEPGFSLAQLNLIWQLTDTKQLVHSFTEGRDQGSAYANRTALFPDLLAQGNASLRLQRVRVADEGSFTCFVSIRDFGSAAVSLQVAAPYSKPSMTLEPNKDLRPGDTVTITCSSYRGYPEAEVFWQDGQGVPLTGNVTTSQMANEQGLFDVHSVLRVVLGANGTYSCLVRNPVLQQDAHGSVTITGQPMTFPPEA

B1: Ly1963 (other)
chain 1: QVQLVQSGAEVKKPGASVKVSCKASGYTFTSYVMHWVRQKPGQGLEWIGYINPYNEGTESTDKFKGRATMTSDKSTSTVYMELSSLRSEDTAVYYCASIYYGYEGTYFGVWGQGTLVTVSSASTKGPSVFPLAPSSKSTSGGTAALGCLVKDYFPEPVTVSWNSGALTSGVHTFPAVLQSSGLYSLSSVVTVPSSSLGTQTYICNVNHKPSNTKVDKKVEPKSCGGGGSGGGGSGGGGSGGGGSEVQLVESGGGLVQPGGSLRLSCAASGFTFSTYAMNWVRQAPGKGLEWVGRIRSKYNNYATYYADSVKGRFTISRDDSKNSLYLQMNSLKTEDTAVYYCVRHGNFGNSYVSWFAYWGQGTLVTVSSGGGGSDKTHTCPPCPAPEAAGPSVFLFPPKPKDTLMISRTPEVTCVVVDVSHEDPEVKFNWYVDGVEVHNAKTKPREEQYNSTYRVVSVLTVLHQDWLNGKEYKCKVSNKALPAPIEKTISKAKGQPREPQVYTLPPSREEMTKNQVSLWCLVKGFYPSDIAVEWESNGQPENNYKTTPPVLDSDGSFFLYSKLTVDKSRWQQGNVFSCSVMHEALHNHYTQKSLSLSPGGGGGSGGGGSGGGGSGGGGSQVQLVQSGAEVKKPGASVKVSCKASGYTFAGFEMHWVRQAPGQGLEWMGAIDPKTGGTDYNQKFKDRVTMTRDTSISTAYMELSRLRSDDTAVYYCARDLGYFDVWGQGTLVTVSS
chain 2: QVQLVQSGAEVKKPGASVKVSCKASGYTFTSYVMHWVRQKPGQGLEWIGYINPYNEGTESTDKFKGRATMTSDKSTSTVYMELSSLRSEDTAVYYCASIYYGYEGTYFGVWGQGTLVTVSSASTKGPSVFPLAPSSKSTSGGTAALGCLVKDYFPEPVTVSWNSGALTSGVHTFPAVLQSSGLYSLSSVVTVPSSSLGTQTYICNVNHKPSNTKVDKKVEPKSCGGGGSGGGGSGGGGSGGGGSQAVVTQEPSLTVSPGGTVTLTCRSSTGAVTTSNYANWVQQKPGQAPRGLIGGTNKRAPWTPARFSGSLLGGKAALTITGAQAEDEADYYCALWYSNLWVFGGGTKLTVLGGGGSDKTHTCPPCPAPEAAGPSVFLFPPKPKDTLMISRTPEVTCVVVDVSHEDPEVKFNWYVDGVEVHNAKTKPREEQYNSTYRVVSVLTVLHQDWLNGKEYKCKVSNKALPAPIEKTISKAKGQPREPQVYTLPPSREEMTKNQVSLSCAVKGFYPSDIAVEWESNGQPENNYKTTPPVLDSDGSFFLVSKLTVDKSRWQQGNVFSCSVMHEALHNHYTQKSLSLSPGGGGGSGGGGSGGGGSGGGGSDIQMTQSPSSLSASVGDRVTITCRASQDIRSNLNWYQQKPGGAVKLLIYYTSRLHSGVPSRFSGSGSGTDYTLTISSLQPEDFATYFCQQSEKLPRTFGGGTKVEIR
light: EIVLTQSPATLSLSPGERATLSCRASSSVSYMHWYQQKPGQAPRPWIYATSNLASGIPARFSGSRSGTDYTLTISSLEPEDFAVYYCQQWSSNTLTFGGGTKVEIKRTVAAPSVFIFPPSDEQLKSGTASVVCLLNNFYPREAKVQWKVDNALQSGNSQESVTEQDSKDSTYSLSSTLTLSKADYEKHKVYACEVTHQGLSSPVTKSFNRGEC
B2: Ly2122 (bispecific antibody, human IgG1, kappa)
chain 1: QVQLVQSGAEVKKPGASVKVSCKASGYTFTSYVMHWVRQKPGQGLEWIGYINPYNEGTESTDKFKGRATMTSDKSTSTVYMELSSLRSEDTAVYYCASIYYGYEGTYFGVWGQGTLVTVSSASTKGPSVFPLAPSSKSTSGGTAALGCLVKDYFPEPVTVSWNSGALTSGVHTFPAVLQSSGLYSLSSVVTVPSSSLGTQTYICNVNHKPSNTKVDKKVEPKSCDKTHTCPPCPAPEAAGPSVFLFPPKPKDTLMISRTPEVTCVVVDVSHEDPEVKFNWYVDGVEVHNAKTKPREEQYNSTYRVVSVLTVLHQDWLNGKEYKCKVSNKALPAPIEKTISKAKGQPREPQVYTLPPSREEMTKNQVSLWCLVKGFYPSDIAVEWESNGQPENNYKTTPPVLDSDGSFFLYSKLTVDKSRWQQGNVFSCSVMHEALHNHYTQKSLSLSPGGGGGSGGGGSGGGGSGGGGSQVQLVQSGAEVKKPGASVKVSCKASGYTFAGFEMHWVRQAPGQGLEWMGAIDPKTGGTDYNQKFKDRVTMTRDTSISTAYMELSRLRSDDTAVYYCARDLGYFDVWGQGTLVTVSS
chain 2: QVQLVQSGAEVKKPGASVKVSCKASGYTFTSYVMHWVRQKPGQGLEWIGYINPYNEGTESTDKFKGRATMTSDKSTSTVYMELSSLRSEDTAVYYCASIYYGYEGTYFGVWGQGTLVTVSSASTKGPSVFPLAPSSKSTSGGTAALGCLVKDYFPEPVTVSWNSGALTSGVHTFPAVLQSSGLYSLSSVVTVPSSSLGTQTYICNVNHKPSNTKVDKKVEPKSCDKTHTCPPCPAPEAAGPSVFLFPPKPKDTLMISRTPEVTCVVVDVSHEDPEVKFNWYVDGVEVHNAKTKPREEQYNSTYRVVSVLTVLHQDWLNGKEYKCKVSNKALPAPIEKTISKAKGQPREPQVYTLPPSREEMTKNQVSLSCAVKGFYPSDIAVEWESNGQPENNYKTTPPVLDSDGSFFLVSKLTVDKSRWQQGNVFSCSVMHEALHNRFTQKSLSLSPGGGGGSGGGGSGGGGSGGGGSDIQMTQSPSSLSASVGDRVTITCRASQDIRSNLNWYQQKPGGAVKLLIYYTSRLHSGVPSRFSGSGSGTDYTLTISSLQPEDFATYFCQQSEKLPRTFGGGTKVEIR
light: B1 light
notes: B7H3/CD137: two B7H3 Fabs, terminal CD137 Fv
B3: Ly2326 (bispecific antibody, human IgG1, kappa)
chain 1: QVQLQQSGAELVRPGSSVKISCKASGYAFSSYWMNWVKQRPGQGLEWIGQIWPGDGDTNYNGKFKGKATLTADESSSTAYMQLSSLASEDSAVYFCARRETTTVGRYYYAMDYWGQGTTVTVSSASTKGPSVFPLAPSSKSTSGGTAALGCLVKDYFPEPVTVSWNSGALTSGVHTFPAVLQSSGLYSLSSVVTVPSSSLGTQTYICNVNHKPSNTKVDKKVEPKSCDKTHTCPPCPAPEAAGPSVFLFPPKPKDTLMISRTPEVTCVVVDVSHEDPEVKFNWYVDGVEVHNAKTKPREEQYNSTYRVVSVLTVLHQDWLNGKEYKCKVSNKALPAPIEKTISKAKGQPREPQVYTLPPSREEMTKNQVSLWCLVKGFYPSDIAVEWESNGQPENNYKTTPPVLDSDGSFFLYSKLTVDKSRWQQGNVFSCSVMHEALHNHYTQKSLSLSPGGGGGSGGGGSGGGGSGGGGSQVQLVQSGAEVKKPGASVKVSCKASGYTFAGFEMHWVRQAPGQGLEWMGAIDPKTGGTDYNQKFKDRVTMTRDTSISTAYMELSRLRSDDTAVYYCARDLGYFDVWGQGTLVTVSS
chain 2: QVQLQQSGAELVRPGSSVKISCKASGYAFSSYWMNWVKQRPGQGLEWIGQIWPGDGDTNYNGKFKGKATLTADESSSTAYMQLSSLASEDSAVYFCARRETTTVGRYYYAMDYWGQGTTVTVSSASTKGPSVFPLAPSSKSTSGGTAALGCLVKDYFPEPVTVSWNSGALTSGVHTFPAVLQSSGLYSLSSVVTVPSSSLGTQTYICNVNHKPSNTKVDKKVEPKSCDKTHTCPPCPAPEAAGPSVFLFPPKPKDTLMISRTPEVTCVVVDVSHEDPEVKFNWYVDGVEVHNAKTKPREEQYNSTYRVVSVLTVLHQDWLNGKEYKCKVSNKALPAPIEKTISKAKGQPREPQVYTLPPSREEMTKNQVSLSCAVKGFYPSDIAVEWESNGQPENNYKTTPPVLDSDGSFFLVSKLTVDKSRWQQGNVFSCSVMHEALHNRFTQKSLSLSPGGGGGSGGGGSGGGGSGGGGSDIQMTQSPSSLSASVGDRVTITCRASQDIRSNLNWYQQKPGGAVKLLIYYTSRLHSGVPSRFSGSGSGTDYTLTISSLQPEDFATYFCQQSEKLPRTFGGGTKVEIR
light: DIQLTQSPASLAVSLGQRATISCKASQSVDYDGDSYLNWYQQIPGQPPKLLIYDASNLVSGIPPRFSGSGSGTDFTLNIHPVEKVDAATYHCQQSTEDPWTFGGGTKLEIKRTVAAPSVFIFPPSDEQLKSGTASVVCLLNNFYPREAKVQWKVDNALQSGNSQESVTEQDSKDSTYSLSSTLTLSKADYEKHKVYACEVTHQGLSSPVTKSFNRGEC
notes: CD19 Fabs, terminal CD137 Fv
B4: Ly1966 (other)
chain 1: QVQLQQSGAELVRPGSSVKISCKASGYAFSSYWMNWVKQRPGQGLEWIGQIWPGDGDTNYNGKFKGKATLTADESSSTAYMQLSSLASEDSAVYFCARRETTTVGRYYYAMDYWGQGTTVTVSSASTKGPSVFPLAPSSKSTSGGTAALGCLVKDYFPEPVTVSWNSGALTSGVHTFPAVLQSSGLYSLSSVVTVPSSSLGTQTYICNVNHKPSNTKVDKKVEPKSCGGGGSGGGGSGGGGSGGGGSEVQLVESGGGLVQPGGSLRLSCAASGFTFSTYAMNWVRQAPGKGLEWVGRIRSKYNNYATYYADSVKGRFTISRDDSKNSLYLQMNSLKTEDTAVYYCVRHGNFGNSYVSWFAYWGQGTLVTVSSGGGGSDKTHTCPPCPAPEAAGPSVFLFPPKPKDTLMISRTPEVTCVVVDVSHEDPEVKFNWYVDGVEVHNAKTKPREEQYNSTYRVVSVLTVLHQDWLNGKEYKCKVSNKALPAPIEKTISKAKGQPREPQVYTLPPSREEMTKNQVSLWCLVKGFYPSDIAVEWESNGQPENNYKTTPPVLDSDGSFFLYSKLTVDKSRWQQGNVFSCSVMHEALHNHYTQKSLSLSPGGGGGSGGGGSGGGGSGGGGSQVQLVQSGAEVKKPGASVKVSCKASGYTFAGFEMHWVRQAPGQGLEWMGAIDPKTGGTDYNQKFKDRVTMTRDTSISTAYMELSRLRSDDTAVYYCARDLGYFDVWGQGTLVTVSS
chain 2: QVQLQQSGAELVRPGSSVKISCKASGYAFSSYWMNWVKQRPGQGLEWIGQIWPGDGDTNYNGKFKGKATLTADESSSTAYMQLSSLASEDSAVYFCARRETTTVGRYYYAMDYWGQGTTVTVSSASTKGPSVFPLAPSSKSTSGGTAALGCLVKDYFPEPVTVSWNSGALTSGVHTFPAVLQSSGLYSLSSVVTVPSSSLGTQTYICNVNHKPSNTKVDKKVEPKSCGGGGSGGGGSGGGGSGGGGSQAVVTQEPSLTVSPGGTVTLTCRSSTGAVTTSNYANWVQQKPGQAPRGLIGGTNKRAPWTPARFSGSLLGGKAALTITGAQAEDEADYYCALWYSNLWVFGGGTKLTVLGGGGSDKTHTCPPCPAPEAAGPSVFLFPPKPKDTLMISRTPEVTCVVVDVSHEDPEVKFNWYVDGVEVHNAKTKPREEQYNSTYRVVSVLTVLHQDWLNGKEYKCKVSNKALPAPIEKTISKAKGQPREPQVYTLPPSREEMTKNQVSLSCAVKGFYPSDIAVEWESNGQPENNYKTTPPVLDSDGSFFLVSKLTVDKSRWQQGNVFSCSVMHEALHNRFTQKSLSLSPGGGGGSGGGGSGGGGSGGGGSDIQMTQSPSSLSASVGDRVTITCRASQDIRSNLNWYQQKPGGAVKLLIYYTSRLHSGVPSRFSGSGSGTDYTLTISSLQPEDFATYFCQQSEKLPRTFGGGTKVEIR
light: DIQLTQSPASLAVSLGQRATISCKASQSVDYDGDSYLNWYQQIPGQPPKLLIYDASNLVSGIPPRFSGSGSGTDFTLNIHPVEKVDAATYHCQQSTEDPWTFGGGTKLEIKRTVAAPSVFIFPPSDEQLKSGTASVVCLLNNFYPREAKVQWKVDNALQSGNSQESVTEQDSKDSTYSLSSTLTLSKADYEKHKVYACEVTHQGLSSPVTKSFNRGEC
notes: Tri-specific antibody: CD19 Fabs, central CD3 Fv, terminal CD137 Fv
B5: Ly1967 (other)
chain 1: B4 chain 1
chain 2: B4 chain 2 with R575H, F576Y
light: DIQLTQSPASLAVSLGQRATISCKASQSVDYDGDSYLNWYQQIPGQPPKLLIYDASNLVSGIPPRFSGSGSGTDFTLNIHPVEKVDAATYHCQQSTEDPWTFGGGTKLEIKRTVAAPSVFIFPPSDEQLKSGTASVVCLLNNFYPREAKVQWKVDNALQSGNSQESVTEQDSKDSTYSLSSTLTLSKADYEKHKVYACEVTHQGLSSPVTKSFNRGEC
notes: as for B4

Legend:
CD137 [1] = molecular target: T2, CD137 (human, UniProt Q07011 24-186); assay: CD137 binding by FCM or ELISA
T2 construct: Reporter assays used GS-H2-huCD137 cells expressing human CD137; also called 4-1BB/CD137; huCD137

B7H3 = molecular target: T1, B7H3; assay: FCM or ELISA
CD137 [2] = molecular target: T3, CD137 (human, UniProt Q07011 24-186); assay: CD137 binding, FCM or ELISA
T3 construct: In the reporter assay it is whole, on GS-H2-huCD137 cells; also called 4-1BB; huCD137

CD3 = CD3 (human); assay: CD3 binding, as described in Example 2 (ELISA or FCM)
CD3 (human), sequence (chain, as listed by the source): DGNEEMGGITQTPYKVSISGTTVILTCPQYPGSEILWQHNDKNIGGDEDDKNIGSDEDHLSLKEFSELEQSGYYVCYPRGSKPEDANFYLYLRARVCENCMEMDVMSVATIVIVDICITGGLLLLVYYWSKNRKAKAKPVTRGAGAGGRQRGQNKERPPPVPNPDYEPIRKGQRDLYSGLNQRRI

Row | Binder | binding result (CD137 [1]) | binding result (B7H3) | binding result (CD137 [2]) | EC50 (CD3)
1 | B1 | binds | binds |  | 
2 | B2 | binds | binds |  | 
3 | B3 |  |  | binds | 
4 | B4 |  |  | binds | 0.348 µg/mL
5 | B5 |  |  | binds | 1.56 µg/mL

Source: patent US20250388669A1 (published 2025)
